Usually Kd stands for the free concentration of one partner at which half of the binding sites on the other are occupied at equilibrium, for simple one-to-one binding. The low end stands for tighter binding, the high end for weaker binding. By koff is commonly meant the first-order rate constant of dissociation. What is called kon is the second-order rate constant of association. A lower kon goes with slow association.

Assay [1] addresses T1, EGFR overexpressed on cancer cell lines MDA-MB-468 and A431 (human, UniProt P00533 25-1210).
T1 construct: whole, on cells; also called overexpressed EGFR; cancer-expressed EGFR
As to the kind of experiment: flow cytometry, antibodies added at 2 µg/ml, MDA-MB-468 cells.

In assay [2] the target is T1, EGFR overexpressed on cancer cell lines …. The assay can be described thus: flow cytometry, antibodies added at 2 µg/ml, A431 cells. (A flow cytometer gives signals particle by particle.)
Assay [3] concerns the target T2, wild-type EGFR extracellular domain, His-tagged (human, UniProt P00533 25-645).
T2 construct: extracellular domain; also called wtEGFR-His; EGFRwt ECD
The assay can be described thus: ELISA, purified antibody on His-tagged ECD, OD450. (In an ELISA, binding on a coated surface is turned into a signal by an enzyme label.)

Assay [4] has as its target T3, EGFRvIII on F98npEGFRvIII cells (rat glioma F98 transfected with nonphosphorylated EGFRvIII).
T3 construct: whole, on cells; also called F98-EGFRvIII
The assay can be described thus: flow cytometry, antibodies added at 2 µg/ml, F98-npEGFRvIII cells.

Assay [5] concerns the target T2, wild-type EGFR extracellular domain, …. The assay can be described thus: ELISA, hybridoma supernatant on His-tagged ECD on nickel-coated 96-well plate, OD450.
Assay [6] addresses T4, wtEGFR at physiological levels on WI-38 cells (human, UniProt P00533 25-1210).
T4 construct: whole, on cells; also called normal cells
The assay can be described thus: flow cytometry, antibodies added at 2 µg/ml, WI-38 cells.

For assay [7], the target named is T5, wild-type EGFR on F98EGFR cells (rat glioma F98 transfected with full-length EGFR) (UniProt P00533 25-1210, limits assumed).
T5 construct: whole, on cells; also called wtEGFR on transfected F98 cells
As to the kind of experiment: flow cytometry, antibodies added at 2 µg/ml, F98-EGFR cells.

Assay [8] has as its target EGFRvIII on DKMG-EGFRvIII cells (human glioblastoma line DKMG transduced with EGFRvIII). The assay can be described thus: cell-based or functional assay.
For assay [9], the target named is T6, EGFRvIII extracellular domain, His-tagged (human).
T6 construct: extracellular domain; also called EGFRvIII-His; EGFRvIII-HIS
As to the kind of experiment: BLI (Octet Red96), His-tagged antigen on Ni-NTA biosensors, antibody in solution, 30 C.

B1: monoclonal antibody 11E11 (antibody, V domains shown)
VH: QVQLKQSGPSLVQPSQSLSITCTVSGFSLTNYGVHWIRQSPGKGLEWLGVKWRGGRTDYNAAFMSRLSITRDNSRSQVFFKMNSLQTDDTAIYYCAKNGPFGNFAGYWGQGTLVTVSA
VL: DIVMSQSPSSLAVSVGEKVSLTCKSSQSLLDNQKHYLAWYQQKPGQSPKLLIYWASTRESGVPDRFTGSGSGTEFTLTISSVKAEDLAVYYCQQFYNYPYTFGGGTKLEIK
For the molecule B1, the “Median : PE-A” value in assay [1] came to 216; in [2] it was 274; in [4], 1440. Moreover, the binding result in [3] is “no binding (tested: 5 ng/ml)”.

B2: monoclonal antibody 1D9 (antibody, V domains shown)
VH: QVQLKQSGRSLVQPSQSLSITCTVSGFSLTDYGVHWIRQSPGKGLEWLGVIWRSGRTDYNAVFMSRLSITKDNSKSQVFFKMNGLQTDDTAIYYCAKNGPFGNFAGYWGQGTPVAVSA
VL: DIVMSQSPSSLAVSVGEKVTMRCRSSQSLLDSYHQKNYLAWYLQKPGQSPKLLIYWASTRESGVPDRFTGSGSGTDFTLTISSVKAEDLAVYYCQEYYRYPYTFGGGTKLEIK
Regarding B2, the binding result in [5] is “no binding”. The “Median : PE-A” value in assay [1] amounted to 166; in assay [6], 41.4; in assay [7], 45.5; in assay [2], 136; in [4], 1230.

B3: monoclonal antibody 11G3 (antibody, V domains shown)
VH: QVQLKQSGPSLVQPSQSLSITCTVSGFSLTNYGVHWVRQSPGKGLEWLGVMWRGGRTDYNAAFMSRLSITKDNSRSQVFFKMNSLQTDDAAIYYCAKNGPFGNFAGYWGQGTLVTVST
VL: DIVMSQSPSSLPVSVGEKVSLTCKSSRSLLDNQKHYLAWYQQKPGQSPKLLIYWASTRESGVPDRFTGSGSGTEFTLTISSVKAEDLAVYYCQQFYNYPYTFGGGTKLEIK
Take B3: the “Median : PE-A” value came out at 90.3 in assay [1], 39.6 in [6], 37.9 in [7] and 90.3 in assay [2]. For the same molecule, the binding result in assay [3] is recorded as “no binding (tested: 5 ng/ml)”.

B4: monoclonal antibody 4A4 (antibody, V domains shown)
VH: QVQLKQSGRSLVQPSQSLSITCTVSGFSLTDYGVHWIRQSPGKGLEWLGVIWRSGRTDYNAVFMSRLSITKDNSKSQVFFKMNGLLIEDTAIYYCAKNGPFGNFAGYWGQGTPVAVSA
VL: DIVMSQSPSSLAVSVGEKVTMRCRSSQSLLDSYHQKNYLAWYLQKPGQSPKLLIYWASTRESGVPDRFTGSGSGTDFTLTISSVKAEDLAAYYCQEYYRYPYTFGGGTKLEIK
On to B4, for which the “Median : PE-A” value in assay [1] was determined as 130; in assay [6], 48; in [7], 41.7; in assay [2], 83.3; in assay [4], 1110. For the same molecule, the binding result in assay [3] is given as “no binding (tested: 5 ng/ml)”.

B5: 40H3 MMAE antibody drug conjugate (antibody, V domains shown)
VH: QVQLKQSGPGLVQPSQSLSITCTVSGFSLTNYGIHWLRQSPGKGLEWLGMMWRGGGTDYNAAFISRLTITKDTSKSQVFFRMNNLQTNDTAIYYCARKGVGMGLGYWGQGTSVTVSS
VL: DIQMTQSPASQSASLGESVTITCLASQTIGTWVAWYQQKPGRSPQLLIYGATNLADGVPSRFSGSGSGTKFSFKISSLQAEDFVSYYCQQLYSNPYTFGGGTKLEIK
Consider B5, for which, in assay [8], the “IC50 (nM), cell viability, DKMG EGFRvIII cells” value amounted to 1.9 nM.

B6: 40H3 DM1 antibody drug conjugate (antibody, V domains shown)
VH: QVQLKQSGPGLVQPSQSLSITCTVSGFSLTNYGIHWLRQSPGKGLEWLGMMWRGGGTDYNAAFISRLTITKDTSKSQVFFRMNNLQTNDTAIYYCARKGVGMGLGYWGQGTSVTVSS
VL: DIQMTQSPASQSASLGESVTITCLASQTIGTWVAWYQQKPGRSPQLLIYGATNLADGVPSRFSGSGSGTKFSFKISSLQAEDFVSYYCQQLYSNPYTFGGGTKLEIK
As to B6, in [8], the “IC50 (nM), cell viability, DKMG EGFRvIII cells” value was 0.56 nM.

B7: monoclonal antibody 40H3 (antibody, V domains shown)
VH: QVQLKQSGPGLVQPSQSLSITCTVSGFSLTNYGIHWLRQSPGKGLEWLGMMWRGGGTDYNAAFISRLTITKDTSKSQVFFRMNNLQTNDTAIYYCARKGVGMGLGYWGQGTSVTVSS
VL: DIQMTQSPASQSASLGESVTITCLASQTIGTWVAWYQQKPGRSPQLLIYGATNLADGVPSRFSGSGSGTKFSFKISSLQAEDFVSYYCQQLYSNPYTFGGGTKLEIK
notes: also called ma40H3 GS; 40H3 (full length antibody)
On to B7, for which, in assay [1], the “Median : PE-A” value is 2140. Besides, the “Median : PE-A” value in assay [2] came to 3160. In assay [9], this molecule came in with a Kd of 270 pM, an off-rate (koff) of 4.51e-05 s⁻¹ and a kon of 167000 M⁻¹ s⁻¹. The “Median : PE-A” value in assay [4] is 1120.

B8: monoclonal antibody 3D10 (antibody, V domains shown)
VH: QVQLKQSGPGLVQPSQSLSIICTVSGFSLTRNGVHWVRQSPGKGLEWVGVIWRSGRTDYDAAFMSRLSITKDNSKSQVFFKMNSLQADDTAIYYCVKNGDDGNYGTYWGQGTLVTVSA
VL: DIVMSQSPSSLGVSVGEKVTMSCKSSQSLLDSRNQKNYLAWYQQKPGQSPKLLIYWASTRESGVPDRFTGSGSGTEFTLTISSVKAEDLAIYYCQQYYNYPYTFGGGTKLEIT
With B8, the binding result in [5] is reported as “no binding”. The “Median : PE-A” value in assay [1] came out at 205; in [2] it was 196; in [4] it was 1420.

B9: monoclonal antibody 9G11 (antibody, V domains shown)
VH: QVQLKQSGPGLVQPSQSLSITCTVSGFSLTRNGVHWVRQSPGKGLEWVGVIWRGGRTDYDAAFMSRLSITKDNSKSQVFFKMNSLQADDTAIYYCVKNGDDGNYGTYWGQGTLVTVSA
VL: DIVMSQSPSSLGVSVGEKVTMSCKSSQSLLDSRNQKNYLAWYQQKPGQSPKLLIYWASTRESGVPDRFTGSGSGTEFTLTISSVKAEDLAIYYCQQYYNYPYTFGGGTKLEIT
For B9, the entries for the “Median : PE-A” value in assay [1], in [2] and in assay [4] were 166, 160 and 1010, respectively. Moreover, in assay [3], the binding result is on record as “no binding (tested: 5 ng/ml)”.
